Data reported in US20250352579A1 (HEBEI SENLANG BIOTECHNOLOGY, published 2025).

T1: CD7 on cells (K562-CD7 positive cells; KG-1a-GFP-Luc; CCRF-CEM) (UniProt P09564 26-240, limits assumed)
T1 sequence (looked up): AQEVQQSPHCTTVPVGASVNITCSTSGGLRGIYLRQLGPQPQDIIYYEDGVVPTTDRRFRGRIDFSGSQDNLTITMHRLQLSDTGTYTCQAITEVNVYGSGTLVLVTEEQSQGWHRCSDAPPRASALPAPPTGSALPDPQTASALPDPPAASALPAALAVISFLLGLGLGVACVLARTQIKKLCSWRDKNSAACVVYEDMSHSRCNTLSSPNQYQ

T2: CD7-His protein (UniProt P09564 26-180, limits assumed)
T2 construct: extracellular domain; also called recombinant CD7-His protein; CD7 antigen; not shown: His tag
T2 sequence (looked up): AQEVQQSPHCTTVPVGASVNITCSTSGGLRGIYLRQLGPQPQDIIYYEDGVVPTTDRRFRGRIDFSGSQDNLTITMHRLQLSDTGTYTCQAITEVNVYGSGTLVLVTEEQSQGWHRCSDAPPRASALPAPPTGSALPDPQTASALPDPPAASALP


biological target: T1, CD7 on cells (K562-CD7 positive cells; …); experiment: cell-based or functional assay

Row | Binder | killing ratio, CAR-T cells on KG-1a-GFP-Luc, E:T=3:1, 4 h, luciferase [%]
1 | VHH14 single VHH CAR (other) QVQLQESGGGLVQPGGSLRLSCTASGLTLGYYAIGWFRQAPGKEREFVSTISASGGMTYYADSVKGRFTISRDNAKNTVYLEMNSLKPEDTAVYYCAAEYLGNLRHFRGDHWGKGTQVTVSSTTPAPRPPTPAPTIASQPLSLRPEACRPAAGGAVHTRGLDFACDIYIWAPLAGTCGVLLLSLVITLYCKRGRKKLLYIFKQPFMRPVQTTQEEDGCSCRFPEEEEGGCELRVKFSRSADAPAYKQGQNQLYNELNLGRREEYDVLDKRRGRDPEMGGKPRRKNPQEGLYNELQKDKMAEAYSEIGMKGERRRGKGHDGLYQGLSTATKDTYDALHMQALPPR | 60.4
2 | VHH19 single VHH CAR (other) QVQLQESGGGLVQPGGSLRLSCTASGRAFSMYVMGWFRQAPGKEREFVSTISASGGMTYYADSVKGRFTISRDNAKNTVYLEMNSLKPEDTAVYYCAAEYLGNLRHFRGDHWGKGTQVTVSSTTPAPRPPTPAPTIASQPLSLRPEACRPAAGGAVHTRGLDFACDIYIWAPLAGTCGVLLLSLVITLYCKRGRKKLLYIFKQPFMRPVQTTQEEDGCSCRFPEEEEGGCELRVKFSRSADAPAYKQGQNQLYNELNLGRREEYDVLDKRRGRDPEMGGKPRRKNPQEGLYNELQKDKMAEAYSEIGMKGERRRGKGHDGLYQGLSTATKDTYDALHMQALPPR | 61.7
3 | VHH12 single VHH CAR (other) QVQLQESGGGLVQPGGSLRLSCAASGSTLDYYAIGWFRQAPGKEREGISCISNSGGMTNYADSVKGRFTISRDNAKNTVYLQMNSLKPEDTAVYYCAAGPAWSYCSGYVPAGLDKFGSWGQGTQVTVSSTTPAPRPPTPAPTIASQPLSLRPEACRPAAGGAVHTRGLDFACDIYIWAPLAGTCGVLLLSLVITLYCKRGRKKLLYIFKQPFMRPVQTTQEEDGCSCRFPEEEEGGCELRVKFSRSADAPAYKQGQNQLYNELNLGRREEYDVLDKRRGRDPEMGGKPRRKNPQEGLYNELQKDKMAEAYSEIGMKGERRRGKGHDGLYQGLSTATKDTYDALHMQALPPR | 78.2
4 | VHH08 single VHH CAR (other) QVQLQESGGGLVQPGGSLRLSCAASGSIFSIHAMAWYRQAPGKQRELVASITVGGRTNYVDSVLGRFTISRDNAKNTVYLQMNSLKPEDTAVYYCNSLLWAGLRDSWGPGTQVTVSSTTPAPRPPTPAPTIASQPLSLRPEACRPAAGGAVHTRGLDFACDIYIWAPLAGTCGVLLLSLVITLYCKRGRKKLLYIFKQPFMRPVQTTQEEDGCSCRFPEEEEGGCELRVKFSRSADAPAYKQGQNQLYNELNLGRREEYDVLDKRRGRDPEMGGKPRRKNPQEGLYNELQKDKMAEAYSEIGMKGERRRGKGHDGLYQGLSTATKDTYDALHMQALPPR | 68.5
5 | VHH20 single VHH CAR (other) QVQLQESGGGLVQPGGSLRLSCAASGTTLDDYAVGWFRQAPGKEREGVACISASELSTYYADSVKGRFTISRDNAKNTMYLQMNSLKPEDTAVYYCAARVGRIVDVTSTQYQYWGQGTQVTVSSTTPAPRPPTPAPTIASQPLSLRPEACRPAAGGAVHTRGLDFACDIYIWAPLAGTCGVLLLSLVITLYCKRGRKKLLYIFKQPFMRPVQTTQEEDGCSCRFPEEEEGGCELRVKFSRSADAPAYKQGQNQLYNELNLGRREEYDVLDKRRGRDPEMGGKPRRKNPQEGLYNELQKDKMAEAYSEIGMKGERRRGKGHDGLYQGLSTATKDTYDALHMQALPPR | 9.38
6 | VHH06 single VHH CAR (other) QVQLQESGGGLVQAGGSLRLSCAASGRTFSSYNMGWFRQAPGAEREFVAAISRGGGSTYYADSVKGRFTISRDNAKNTVYLQMNSLRPEDTAVYYCADSGARAYSGSYLDFGSWGQGTQVTVSSTTPAPRPPTPAPTIASQPLSLRPEACRPAAGGAVHTRGLDFACDIYIWAPLAGTCGVLLLSLVITLYCKRGRKKLLYIFKQPFMRPVQTTQEEDGCSCRFPEEEEGGCELRVKFSRSADAPAYKQGQNQLYNELNLGRREEYDVLDKRRGRDPEMGGKPRRKNPQEGLYNELQKDKMAEAYSEIGMKGERRRGKGHDGLYQGLSTATKDTYDALHMQALPPR | 62.2
7 | VHH10 single VHH CAR (other) QVQLQESGGGLVQTGGSLRLSCEASERTFSSNAVGWFRQAPGKEREFVAAITWSVGTTYYADSVKGRFTISRDNAKNTVYLQMNSLKPEDTAVYYCAASGARHYSGSYLDFGSWGQGTQVTVSSTTPAPRPPTPAPTIASQPLSLRPEACRPAAGGAVHTRGLDFACDIYIWAPLAGTCGVLLLSLVITLYCKRGRKKLLYIFKQPFMRPVQTTQEEDGCSCRFPEEEEGGCELRVKFSRSADAPAYKQGQNQLYNELNLGRREEYDVLDKRRGRDPEMGGKPRRKNPQEGLYNELQKDKMAEAYSEIGMKGERRRGKGHDGLYQGLSTATKDTYDALHMQALPPR | 91.4
8 | VHH07 single VHH CAR (other) QVQLQESGGGLVQAGGSLRLSCAASGRTFSSYVMKWFRQAPGKGREFVAGISWSGSLTSYSDSVKGRFTISRDNAKNTVYLQMNSLKPEDTAVYYCAAGEAATMSDTDYGMDYWGKGTQVTVSSTTPAPRPPTPAPTIASQPLSLRPEACRPAAGGAVHTRGLDFACDIYIWAPLAGTCGVLLLSLVITLYCKRGRKKLLYIFKQPFMRPVQTTQEEDGCSCRFPEEEEGGCELRVKFSRSADAPAYKQGQNQLYNELNLGRREEYDVLDKRRGRDPEMGGKPRRKNPQEGLYNELQKDKMAEAYSEIGMKGERRRGKGHDGLYQGLSTATKDTYDALHMQALPPR | 61.6

biological target: T2, CD7-His protein; experiment: SPR, CD7-His immobilised on CM5 chip by amino coupling, antibody as analyte
Protocol: In this example, the affinities of the antibodies were measured using the SPR method (surface plasmon resonance method) by immobilizing the CD7-His protein prepared in Example 1 on the CM5 chip through amino coupling method, using the antibodies (dVHH-D, dVHH-E, VHH10, and VHH12) as analytes for the experiments to detect the affinity of each antibody to the CD7 antigen.

Row | Kd [nM] | koff [s⁻¹] | kon [M⁻¹ s⁻¹] | Binder
9 | 3.35 | 0.000754 | 225000 | dVHH-D (other, also called VHH-10+VHH-12; double VHH antibody dVHH-D; not shown: Linker) chain (part 1 of 2): QVQLQESGGGLVQTGGSLRLSCEASERTFSSNAVGWFRQAPGKEREFVAAITWSVGTTYYADSVKGRFTISRDNAKNTVYLQMNSLKPEDTAVYYCAASGARHYSGSYLDFGSWGQGTQVTVSS chain (part 2 of 2): QVQLQESGGGLVQPGGSLRLSCAASGSTLDYYAIGWFRQAPGKEREGISCISNSGGMTNYADSVKGRFTISRDNAKNTVYLQMNSLKPEDTAVYYCAAGPAWSYCSGYVPAGLDKFGSWGQGTQVTVSS
10 | 4.51 | 0.000557 | 123000 | dVHH-E (other, also called VHH-10+VHH-10; double VHH antibody dVHH-E; not shown: Linker) chain (part 1 of 2): QVQLQESGGGLVQTGGSLRLSCEASERTFSSNAVGWFRQAPGKEREFVAAITWSVGTTYYADSVKGRFTISRDNAKNTVYLQMNSLKPEDTAVYYCAASGARHYSGSYLDFGSWGQGTQVTVSS chain (part 2 of 2): QVQLQESGGGLVQTGGSLRLSCEASERTFSSNAVGWFRQAPGKEREFVAAITWSVGTTYYADSVKGRFTISRDNAKNTVYLQMNSLKPEDTAVYYCAASGARHYSGSYLDFGSWGQGTQVTVSS
11 | 99.9 | 0.0164 | 164000 | VHH10 (VHH, Variable region only; also called anti-CD7 nanobody VHH10) VHH: QVQLQESGGGLVQTGGSLRLSCEASERTFSSNAVGWFRQAPGKEREFVAAITWSVGTTYYADSVKGRFTISRDNAKNTVYLQMNSLKPEDTAVYYCAASGARHYSGSYLDFGSWGQGTQVTVSS
12 | 1.34 | 9.95e-05 | 74200 | VHH12 (VHH, Variable region only; also called anti-CD7 nanobody VHH12) VHH: QVQLQESGGGLVQPGGSLRLSCAASGSTLDYYAIGWFRQAPGKEREGISCISNSGGMTNYADSVKGRFTISRDNAKNTVYLQMNSLKPEDTAVYYCAAGPAWSYCSGYVPAGLDKFGSWGQGTQVTVSS
